Results reported in patent US20230242902A1, “A HIGHLY ERROR-PRONE […] R[…] FOR TARGETED CONTINUOUS EVOLUTION IN VIVO” (The Regents of the University of California, priority 2017, published 2023).

Tests used:
[1] = system: genomic URA3 locus; assay: Fluctuation tests of genomically encoded URA3 in the presence of TP-DNAP2 variants (AR-Y436); format: cell-based, S. cerevisiae
Procedure: Fluctuation tests using genomically encoded URA3 were performed in the presence of TP-DNAP2 variants to determine the genomic per-base substitution rates, similarly to previously described protocols (Lang and Murray, 2008, Genetics, 178:67-82). AR-Y292 derived strains harboring the appropriate TP-DNAP2 variant encoded on a CEN6/ARS4 vector (with a HIS3 marker) were grown in liquid SC medium lacking uracil and histidine until saturation. Each strain was diluted 1:5,000 into SC medium lacking histidine and aliquoted into 48 replicates of 200 μL each. Cultures were grown for 48 hours at 30° C. to reach saturation. Saturated cultures were washed with 400 μL 0.9% NaCl and resuspended in 420 μL 0.9% NaCl. 400 μL from each replicate was spot plated on pre-dried solid SC medium lacking histidine and supplemented with 5-FOA (1 g/L). The residual 20 μL from six replicates were pooled, diluted, and plated on solid YPD medium to determine cell titers. Plates were allowed to dry before incubation at 30° C. Colonies were counted on titer plates after 2 days, and on spot plates after 5 days of growth. The expected number of mutants (m) was calculated using the MSS maximum likelihood estimator method via the FALCOR tool, and corrected for partial plating, as described above. To determine per-base substitution rates, the corrected m was normalized to the average cell titer, the URA3 copy number (1 in haploid yeast), and the target size for 5-FOA resistance via substitutions in URA3 (104 bp). 95% confidence intervals were similarly scaled.
Like p1 replication by TP-DNAP1, p2 replication by TP-DNAP2 occurs in the cytoplasm via a protein-primed mechanism, making it likely that p2 replication is orthogonal to host genome replication. To test this, CEN6/ARS4 vectors lacking TP-DNAP2, or encoding codon optimized versions of TP-DNAP2^WT, TP-DNAP2^S370Q, or TP-DNAP2^Y424Q were transformed into AR-Y436. AR-Y436 contains wt p1 and p2, as well as an intact URA3 locus in the host genome. Genomic per-base substitution rates were determined via fluctuation tests based on the frequency of 5-FOA resistant clones arising from mutations in the genomic URA3 locus, as previously described (Ravikumar et al., 2014, Nature Chemical Biology, 10:175-177; Lang and Murray, 2008, Genetics, 178:67-82). The substitution rich spectrum of URA3-disabling mutations makes this assay ideal for detecting whether the elevated substitution rate of TP-DNAP2^S370Q or TP-DNAP2^Y424Q contributes to genomic mutation. No increase in the host genomic mutation rate was observed when error-prone variants of TP-DNAP2^S370Q and TP-DNAP2^Y424Q were present (Table 8).

[2] = system: p2-encoded leu2*; assay: p2 leu2* fluctuation tests in GA-Y021 (p2 mutation rate reporter strain); format: cell-based, S. cerevisiae
Summary of the method: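 Yeast GA-Y021 carrying wt TP-DNAP2 plus variants in trans; replicate cultures grown 48 h at 30° C in pH 5.8 SC dropout, spot-plated on leucine-free medium, colonies counted after 5 days. m by p0 method (six replicates) or Ma-Sandri-Sarkar MLE (36–48 replicates), normalized to titer, p2 copy number (mKate2) and 2.33 bp target.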

B1: Y424Q: TP-DNAP2 variant (protein, listed as Kluyveromyces lactis)
chain: MNDELAFLNSQIDDYSDDIEFLRTEVFRINRYSKSIYSLMKNSSKEAIKETIEFNKYGQEIHSKIKEKEISLIEAIKLMEKKYKYLRSLNKTKDKSKKKKIHTKDIETLKTIYKTKADFDIRNFKNAETFTYENYSLLIPSEKELIDLIPEIEEDYSYYFYVSLTITGPTIFGGVTRKVPIIDTYGDINKDFYNKIKENITKVLDRVPFYEEKESEIICKKVLITLTVNKWESIDKWYKNVKSKSKKFKDFTLFLASDTSKNCVQQCVEYLGGKWNTNYSLEKMIPQQKIVTYIPLLMDIQYVQSMEDLISDFDEPNTDCKNIARLLKWNGHMGVITKIDKDVKINRIQRKRIIDVENKEVKEVFFDIESFSDETKHQIPYLICWSYLGELYYRTGKNCIKEFVEEILSYNVDIILYAWYGSGQDYQHVLPYMKSKCIKDKYIIKNNMITYGELYYENAIIYLKDPYLFILTSLDKASKAFNVINKGEFPHSIIHSWEDLNKILPNWVKIQKRMIEYKDDNKLNIYYKNIEIFENDRNYNTILENAIEYCKVDVLAMEKVWIKFKKLLEKNLNITVSVKTFTLSQLSMKIMESKLPKYVKLYVPTLEEYSKIRNAIYGGRVISKNGIYEENIVYADVVSLYPSAMKLLKHSYGKPKLVDYIDFEKHGIYRVTLLNKHDQEPKNYLNFVPRRINRKLTWEWFKIHEGWYHTYDLIIAKSEGFDIYCHEGFEYPEKDYIFNDFIDTLYSMKETHTACSCEEQPCPIRMVAKIALNGGGYGKFVQKPIDKEIYIVKRDVVAGECDKLQENENGEICIGKRLVKRPLFYNLDSENYDKMIIEKEDEPIYSTQCGISILSASRYRLYKLCKQFENIDIIYSDTDSIFVKQKSVDWELFKSKCGSELGQLDSTIDDTKNAIISKMYIGGAKMYAFEYLNNKNKLITKLHCKGVPNYMLSLNQFKYLMESPDNTIAYKFEIIRRKLVNVITKDLIKDIKQT
With B1 the “per-base substitution rate at genomic URA3 locus” value ([1]; TP-DNAP2 in trans, AR-Y436, (95% C.I.)) was 1.8 (1.0-2.9) ×10^−10, the “host genomic mutation rate” value ([1]; error-prone TP-DNAP2 variant present) was “No increase” and the “fold increase of p2 mutation rate” value ([2]; GA-Y021, mutual orthogonality experiment, 48 replicates) was 16 fold. The “Per-base substitution rate pf p2” value ([2]; TP-DNAP2 variant in trans, wt TP-DNAP2 in cis, 36 replicates, (95% C.I.)) was 77.5 (56.9-100) ×10^−10, the Fold increase ([2]; p2 substitution rate over no variant in trans) was 13.0 and the “fold increase of p2 substitution mutation rate” value ([2]; reconfirmation, 36 replicates) was ~13 fold.
